# Values quoted from earlier work in paper PMC12990809.
# What was measured:
# Experiment in all cases: pulldown
# Conditions in all cases: 20 nM protein, 1.5 uM RNA pool; 20 mM HEPES pH 7.8, 70 mM KCl, 10 mM NaCl, 10% glycerol, 2 mM DTT, 0.1 ug/uL BSA; 30 min, 4 C (protocol of this paper; not …); cited from earlier work
# IGF2BP3 (Homo sapiens) = IGF2BP3 (Homo sapiens) (UniProt O00425)
# HNRNPLL (Homo sapiens) = target: T1, HNRNPLL (Homo sapiens) (UniProt Q8WVV9)
# T1 sequence: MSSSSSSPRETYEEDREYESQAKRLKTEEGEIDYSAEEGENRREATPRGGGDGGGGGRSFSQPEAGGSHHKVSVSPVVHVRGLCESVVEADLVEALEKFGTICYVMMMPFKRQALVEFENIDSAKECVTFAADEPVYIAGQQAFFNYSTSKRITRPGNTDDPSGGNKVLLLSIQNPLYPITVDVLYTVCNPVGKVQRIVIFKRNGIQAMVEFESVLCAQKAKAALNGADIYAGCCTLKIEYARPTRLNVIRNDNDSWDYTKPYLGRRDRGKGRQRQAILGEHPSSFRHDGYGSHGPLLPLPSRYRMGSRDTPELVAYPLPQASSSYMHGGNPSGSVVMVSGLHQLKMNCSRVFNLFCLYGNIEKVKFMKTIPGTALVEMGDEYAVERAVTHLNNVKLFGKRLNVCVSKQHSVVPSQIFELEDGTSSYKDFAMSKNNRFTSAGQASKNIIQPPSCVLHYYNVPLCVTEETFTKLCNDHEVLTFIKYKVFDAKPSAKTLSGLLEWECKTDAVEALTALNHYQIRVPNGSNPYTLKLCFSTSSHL
# PABPC5 (Homo sapiens) = PABPC5 (Homo sapiens) (UniProt Q96DU9)
# Sequence of PABPC5 (Homo sapiens) (Q96DU9 whole entry): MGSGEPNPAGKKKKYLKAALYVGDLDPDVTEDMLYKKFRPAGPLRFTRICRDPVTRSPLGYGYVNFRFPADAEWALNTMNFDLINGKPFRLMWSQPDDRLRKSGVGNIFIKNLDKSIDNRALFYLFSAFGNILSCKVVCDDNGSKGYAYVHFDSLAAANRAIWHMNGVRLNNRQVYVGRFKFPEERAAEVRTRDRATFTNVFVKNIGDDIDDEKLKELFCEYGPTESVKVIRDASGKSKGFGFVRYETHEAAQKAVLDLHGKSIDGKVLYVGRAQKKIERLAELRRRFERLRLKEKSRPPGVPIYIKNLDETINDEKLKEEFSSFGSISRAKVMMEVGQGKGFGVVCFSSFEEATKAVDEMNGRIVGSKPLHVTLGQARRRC
# [1] = target: T2, mec-8 (Caenorhabditis elegans) (UniProt G5ECJ4)
# T2 sequence: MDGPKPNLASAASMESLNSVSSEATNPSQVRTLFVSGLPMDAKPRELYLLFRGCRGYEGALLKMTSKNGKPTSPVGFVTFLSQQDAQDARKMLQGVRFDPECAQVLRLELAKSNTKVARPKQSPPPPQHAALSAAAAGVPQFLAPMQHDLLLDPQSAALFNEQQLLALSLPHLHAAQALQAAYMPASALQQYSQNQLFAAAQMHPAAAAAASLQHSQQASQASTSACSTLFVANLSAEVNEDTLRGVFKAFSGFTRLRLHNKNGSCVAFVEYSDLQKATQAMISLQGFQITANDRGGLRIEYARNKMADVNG
# KHDRBS2 (Homo sapiens) = target: T3, KHDRBS2 (Homo sapiens) (UniProt Q5VWX1)
# T3 sequence: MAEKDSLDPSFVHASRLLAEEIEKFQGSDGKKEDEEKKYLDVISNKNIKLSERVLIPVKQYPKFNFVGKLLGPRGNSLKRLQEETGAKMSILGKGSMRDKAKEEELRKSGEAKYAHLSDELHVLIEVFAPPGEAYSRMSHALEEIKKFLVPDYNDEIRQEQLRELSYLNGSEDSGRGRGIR
# KHDRBS1 (Homo sapiens) = KHDRBS1 (Homo sapiens) (UniProt Q07666)
# Sequence of KHDRBS1 (Homo sapiens) (Q07666 107-291): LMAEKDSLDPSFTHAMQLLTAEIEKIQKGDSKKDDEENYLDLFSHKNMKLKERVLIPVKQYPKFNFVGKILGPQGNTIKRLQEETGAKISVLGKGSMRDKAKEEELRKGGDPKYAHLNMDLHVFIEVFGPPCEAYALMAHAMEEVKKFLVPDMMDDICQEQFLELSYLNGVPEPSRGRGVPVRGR
# [2] = target: T4, MAL8P1.40 (Plasmodium falciparum) (UniProt Q8IB66)
# T4 sequence: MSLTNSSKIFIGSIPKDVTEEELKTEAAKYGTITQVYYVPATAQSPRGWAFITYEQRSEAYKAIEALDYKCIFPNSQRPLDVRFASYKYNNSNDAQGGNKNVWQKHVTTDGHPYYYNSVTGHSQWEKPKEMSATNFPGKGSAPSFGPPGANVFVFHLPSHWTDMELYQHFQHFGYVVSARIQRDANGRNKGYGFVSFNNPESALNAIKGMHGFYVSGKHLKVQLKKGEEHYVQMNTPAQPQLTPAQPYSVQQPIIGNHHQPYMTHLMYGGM
# PCBP1 (Homo sapiens) = PCBP1 (Homo sapiens) (UniProt Q15365)
# Sequence of PCBP1 (Homo sapiens) (Q15365 whole entry): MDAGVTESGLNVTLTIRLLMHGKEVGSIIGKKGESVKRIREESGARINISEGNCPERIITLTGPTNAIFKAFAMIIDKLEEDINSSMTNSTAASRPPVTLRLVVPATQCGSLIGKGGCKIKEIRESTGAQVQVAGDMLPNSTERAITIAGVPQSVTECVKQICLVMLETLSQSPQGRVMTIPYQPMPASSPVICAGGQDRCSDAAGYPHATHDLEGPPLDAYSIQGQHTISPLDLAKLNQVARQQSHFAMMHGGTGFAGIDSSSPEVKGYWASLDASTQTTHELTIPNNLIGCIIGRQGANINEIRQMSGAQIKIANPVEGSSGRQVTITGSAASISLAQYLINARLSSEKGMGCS
# [3] = target: T5, PF10_0068 (Plasmodium falciparum) (UniProt Q8IJX3)
# T5 sequence: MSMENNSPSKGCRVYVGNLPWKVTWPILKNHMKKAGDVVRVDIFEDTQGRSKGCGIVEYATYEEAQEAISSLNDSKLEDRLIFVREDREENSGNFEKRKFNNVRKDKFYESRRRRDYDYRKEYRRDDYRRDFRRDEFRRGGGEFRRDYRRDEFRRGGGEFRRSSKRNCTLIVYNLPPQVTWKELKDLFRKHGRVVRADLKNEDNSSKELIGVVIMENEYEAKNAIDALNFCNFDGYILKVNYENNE
# RBM24 (Homo sapiens) = target: T6, RBM24 (Homo sapiens) (UniProt Q9BX46)
# T6 sequence: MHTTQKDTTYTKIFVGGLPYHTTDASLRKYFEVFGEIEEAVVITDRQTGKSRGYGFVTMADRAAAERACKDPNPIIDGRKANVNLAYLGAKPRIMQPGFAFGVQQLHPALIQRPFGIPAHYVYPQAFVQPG
# CELF5 (Homo sapiens) = CELF5 (Homo sapiens) (UniProt Q8N6W0)
# Sequence of CELF5 (Homo sapiens) (Q8N6W0 whole entry): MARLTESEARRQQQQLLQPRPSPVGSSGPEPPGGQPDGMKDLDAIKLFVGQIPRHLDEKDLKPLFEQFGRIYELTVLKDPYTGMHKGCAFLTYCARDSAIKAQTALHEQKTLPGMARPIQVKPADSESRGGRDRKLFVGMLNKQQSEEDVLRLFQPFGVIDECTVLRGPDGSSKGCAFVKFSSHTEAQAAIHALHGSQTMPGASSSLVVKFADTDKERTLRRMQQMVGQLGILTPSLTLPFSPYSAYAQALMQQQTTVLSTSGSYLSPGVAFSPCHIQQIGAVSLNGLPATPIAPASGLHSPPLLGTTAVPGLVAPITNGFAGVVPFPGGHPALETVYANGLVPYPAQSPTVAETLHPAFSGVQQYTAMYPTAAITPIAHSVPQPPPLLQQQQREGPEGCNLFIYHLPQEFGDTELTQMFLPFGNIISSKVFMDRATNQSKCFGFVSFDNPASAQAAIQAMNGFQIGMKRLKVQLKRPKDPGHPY
# [4] = target: T7, etr-1 (Caenorhabditis elegans) (UniProt A8DYS0)
# T7 sequence: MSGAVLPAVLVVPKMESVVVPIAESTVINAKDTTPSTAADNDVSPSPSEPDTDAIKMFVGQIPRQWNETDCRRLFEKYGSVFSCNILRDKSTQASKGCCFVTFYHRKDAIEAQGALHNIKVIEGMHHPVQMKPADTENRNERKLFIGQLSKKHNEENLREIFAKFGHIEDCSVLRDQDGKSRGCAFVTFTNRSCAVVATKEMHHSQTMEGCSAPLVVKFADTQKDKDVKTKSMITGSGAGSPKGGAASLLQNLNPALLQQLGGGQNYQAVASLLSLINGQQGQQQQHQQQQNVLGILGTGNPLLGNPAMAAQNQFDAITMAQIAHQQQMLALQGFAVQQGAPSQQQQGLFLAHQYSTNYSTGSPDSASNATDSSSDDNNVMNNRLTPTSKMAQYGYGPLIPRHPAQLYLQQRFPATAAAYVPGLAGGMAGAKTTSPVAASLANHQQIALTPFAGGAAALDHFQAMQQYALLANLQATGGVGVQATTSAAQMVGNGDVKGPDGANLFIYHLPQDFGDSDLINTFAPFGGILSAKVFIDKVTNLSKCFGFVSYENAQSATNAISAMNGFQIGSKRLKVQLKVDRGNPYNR
# DAZAP1 (Homo sapiens) = target: T8, DAZAP1 (Homo sapiens) (UniProt Q96EP5)
# T8 sequence: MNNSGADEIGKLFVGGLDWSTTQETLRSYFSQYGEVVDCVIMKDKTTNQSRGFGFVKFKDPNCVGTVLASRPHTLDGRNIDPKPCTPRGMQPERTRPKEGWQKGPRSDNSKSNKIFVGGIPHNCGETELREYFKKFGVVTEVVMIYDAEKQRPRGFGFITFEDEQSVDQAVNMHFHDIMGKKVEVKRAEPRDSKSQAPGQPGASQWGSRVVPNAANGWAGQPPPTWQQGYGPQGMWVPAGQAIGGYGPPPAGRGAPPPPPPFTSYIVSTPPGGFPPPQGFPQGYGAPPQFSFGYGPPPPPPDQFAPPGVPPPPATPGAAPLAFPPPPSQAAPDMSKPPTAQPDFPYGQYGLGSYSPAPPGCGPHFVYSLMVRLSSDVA
# [5] = target: T9, sup-26 (Caenorhabditis elegans) (UniProt D5MCR3)
# T9 sequence: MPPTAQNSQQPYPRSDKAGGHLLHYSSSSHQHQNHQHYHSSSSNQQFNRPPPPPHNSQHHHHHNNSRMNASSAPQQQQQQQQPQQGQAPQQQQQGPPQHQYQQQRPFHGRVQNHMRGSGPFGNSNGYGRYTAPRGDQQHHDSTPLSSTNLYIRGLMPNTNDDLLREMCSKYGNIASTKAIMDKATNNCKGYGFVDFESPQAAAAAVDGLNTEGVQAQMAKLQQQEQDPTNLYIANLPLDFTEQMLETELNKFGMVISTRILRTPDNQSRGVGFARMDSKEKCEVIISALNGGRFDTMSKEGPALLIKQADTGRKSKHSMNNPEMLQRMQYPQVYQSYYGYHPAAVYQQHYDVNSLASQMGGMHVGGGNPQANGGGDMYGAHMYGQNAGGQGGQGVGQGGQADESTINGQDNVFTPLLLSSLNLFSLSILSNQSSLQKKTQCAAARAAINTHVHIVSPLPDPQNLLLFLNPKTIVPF
# A2BP1 (Homo sapiens) = target: T10, A2BP1 (Homo sapiens) (UniProt Q9NWB1)
# T10 sequence: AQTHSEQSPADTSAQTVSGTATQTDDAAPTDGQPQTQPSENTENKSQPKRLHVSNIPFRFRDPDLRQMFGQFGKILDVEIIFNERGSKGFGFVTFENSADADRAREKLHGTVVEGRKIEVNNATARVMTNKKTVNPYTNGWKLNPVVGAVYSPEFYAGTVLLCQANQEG
# [6] = target: T11, asd-1 (Caenorhabditis elegans) (UniProt A1BPT6)
# T11 sequence: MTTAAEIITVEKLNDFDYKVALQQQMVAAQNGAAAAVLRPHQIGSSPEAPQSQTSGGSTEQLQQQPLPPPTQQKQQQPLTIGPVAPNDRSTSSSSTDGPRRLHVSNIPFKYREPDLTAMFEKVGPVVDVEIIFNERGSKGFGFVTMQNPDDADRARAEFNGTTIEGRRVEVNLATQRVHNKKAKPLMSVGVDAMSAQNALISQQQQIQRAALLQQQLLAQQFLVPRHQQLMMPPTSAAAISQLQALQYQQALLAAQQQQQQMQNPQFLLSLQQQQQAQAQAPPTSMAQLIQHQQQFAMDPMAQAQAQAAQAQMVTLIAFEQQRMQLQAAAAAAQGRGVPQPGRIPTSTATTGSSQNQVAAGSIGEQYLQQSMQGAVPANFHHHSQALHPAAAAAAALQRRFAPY
# CELF6 (Homo sapiens) = CELF6 (Homo sapiens) (UniProt Q96J87)
# Sequence of CELF6 (Homo sapiens) (Q96J87 whole entry): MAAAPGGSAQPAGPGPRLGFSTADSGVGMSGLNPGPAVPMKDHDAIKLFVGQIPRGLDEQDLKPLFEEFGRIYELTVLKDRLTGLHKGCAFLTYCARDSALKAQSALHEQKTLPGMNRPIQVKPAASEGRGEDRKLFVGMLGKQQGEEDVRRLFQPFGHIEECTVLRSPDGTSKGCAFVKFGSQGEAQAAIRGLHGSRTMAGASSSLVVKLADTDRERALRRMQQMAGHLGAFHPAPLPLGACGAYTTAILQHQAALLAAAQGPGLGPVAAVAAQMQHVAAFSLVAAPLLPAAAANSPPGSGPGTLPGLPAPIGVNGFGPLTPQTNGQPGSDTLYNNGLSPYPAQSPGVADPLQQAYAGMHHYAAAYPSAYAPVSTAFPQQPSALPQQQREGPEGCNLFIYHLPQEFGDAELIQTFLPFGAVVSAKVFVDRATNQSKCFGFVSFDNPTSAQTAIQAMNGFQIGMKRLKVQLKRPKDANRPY
# [7] = target: T12, sup-12 (Caenorhabditis elegans) (UniProt O45189)
# T12 sequence: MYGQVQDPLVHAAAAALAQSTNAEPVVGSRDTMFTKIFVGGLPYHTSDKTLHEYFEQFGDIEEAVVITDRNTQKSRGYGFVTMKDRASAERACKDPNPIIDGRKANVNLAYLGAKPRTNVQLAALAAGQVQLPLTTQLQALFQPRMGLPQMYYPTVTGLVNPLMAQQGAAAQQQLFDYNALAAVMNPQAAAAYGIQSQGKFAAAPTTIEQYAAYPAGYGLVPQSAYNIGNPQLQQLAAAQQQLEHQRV
# [8] = target: T13, exc-7 (Caenorhabditis elegans) (UniProt Q20084)
# T13 sequence: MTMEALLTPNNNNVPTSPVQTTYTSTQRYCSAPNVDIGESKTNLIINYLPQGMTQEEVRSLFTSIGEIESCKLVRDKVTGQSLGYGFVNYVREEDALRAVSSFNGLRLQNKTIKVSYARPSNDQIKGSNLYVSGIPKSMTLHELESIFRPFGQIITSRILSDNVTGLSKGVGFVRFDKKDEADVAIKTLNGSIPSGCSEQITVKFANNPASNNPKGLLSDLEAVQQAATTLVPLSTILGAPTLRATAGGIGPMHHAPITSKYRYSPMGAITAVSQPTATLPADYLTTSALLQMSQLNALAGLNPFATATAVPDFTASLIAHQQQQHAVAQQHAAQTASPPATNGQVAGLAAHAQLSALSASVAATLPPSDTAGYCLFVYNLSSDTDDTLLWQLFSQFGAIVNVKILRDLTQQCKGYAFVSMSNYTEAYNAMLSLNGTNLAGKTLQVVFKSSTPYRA
# HNRNPCL1 (Homo sapiens) = HNRNPCL1 (Homo sapiens) (UniProt O60812)
# Sequence of HNRNPCL1 (Homo sapiens) (O60812 1-131): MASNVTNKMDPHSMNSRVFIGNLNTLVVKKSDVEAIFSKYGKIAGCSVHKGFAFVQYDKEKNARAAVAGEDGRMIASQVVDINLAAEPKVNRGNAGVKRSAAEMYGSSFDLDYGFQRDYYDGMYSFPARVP
# Sequence of IGF2BP3 (Homo sapiens) (O00425 whole entry): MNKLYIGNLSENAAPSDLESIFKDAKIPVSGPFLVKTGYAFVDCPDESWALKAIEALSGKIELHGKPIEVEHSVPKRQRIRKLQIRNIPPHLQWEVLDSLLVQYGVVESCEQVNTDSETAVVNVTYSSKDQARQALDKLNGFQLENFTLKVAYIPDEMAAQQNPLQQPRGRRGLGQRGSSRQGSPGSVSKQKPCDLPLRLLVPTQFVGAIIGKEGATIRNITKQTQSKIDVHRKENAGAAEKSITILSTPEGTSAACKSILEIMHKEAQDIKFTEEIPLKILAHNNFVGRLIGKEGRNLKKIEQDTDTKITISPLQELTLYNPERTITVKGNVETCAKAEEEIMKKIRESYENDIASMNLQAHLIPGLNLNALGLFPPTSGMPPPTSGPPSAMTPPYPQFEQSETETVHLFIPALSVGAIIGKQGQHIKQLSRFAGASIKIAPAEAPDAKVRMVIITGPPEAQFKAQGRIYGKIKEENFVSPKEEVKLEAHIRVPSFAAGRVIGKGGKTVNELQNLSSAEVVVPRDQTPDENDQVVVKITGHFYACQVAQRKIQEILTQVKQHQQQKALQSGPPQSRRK
substance,measurement,setting,value
AACAA [RNAcompete motif RNCMPT00172],binding signal (z-score (mean of top ten 7-mers)),IGF2BP3 (Homo sapiens),6.02
ACANACA [RNAcompete motif RNCMPT00178],binding signal (z-score (mean of top ten 7-mers)),HNRNPLL (Homo sapiens),9.56
AGAAANU [RNAcompete motif RNCMPT00171],binding signal (z-score (mean of top ten 7-mers)),PABPC5 (Homo sapiens),7.11
AGCACA [RNAcompete motif RNCMPT00181],binding signal (z-score (mean of top ten 7-mers)),[1],8.36
AUAAA [RNAcompete motif RNCMPT00185],binding signal (z-score (mean of top ten 7-mers)),KHDRBS2 (Homo sapiens),8.2
AUAAAAG [RNAcompete motif RNCMPT00169],binding signal (z-score (mean of top ten 7-mers)),KHDRBS1 (Homo sapiens),9.86
AUACAUG [RNAcompete motif RNCMPT00197],binding signal (z-score (mean of top ten 7-mers)),[2],14.8
CCNANCC [RNAcompete motif RNCMPT00186],binding signal (z-score (mean of top ten 7-mers)),PCBP1 (Homo sapiens),6.42
GGAGGA [RNAcompete motif RNCMPT00199],binding signal (z-score (mean of top ten 7-mers)),[3],8.55
GUGUGA [RNAcompete motif RNCMPT00184],binding signal (z-score (mean of top ten 7-mers)),RBM24 (Homo sapiens),10.6
GUGUGUG [RNAcompete motif RNCMPT00166],binding signal (z-score (mean of top ten 7-mers)),CELF5 (Homo sapiens),9.48
GUGUGUU [RNAcompete motif RNCMPT00183],binding signal (z-score (mean of top ten 7-mers)),[4],8.98
UAGGUAG [RNAcompete motif RNCMPT00013],binding signal (z-score (mean of top ten 7-mers)),DAZAP1 (Homo sapiens),7.92
UAUAUA [RNAcompete motif RNCMPT00182],binding signal (z-score (mean of top ten 7-mers)),[5],6.85
UGCAUG [RNAcompete motif RNCMPT00168],binding signal (z-score (mean of top ten 7-mers)),A2BP1 (Homo sapiens),23.3
UGCAUGA [RNAcompete motif RNCMPT00180],binding signal (z-score (mean of top ten 7-mers)),[6],20.3
UGUGGUG [RNAcompete motif RNCMPT00187],binding signal (z-score (mean of top ten 7-mers)),CELF6 (Homo sapiens),7.27
UGUGUG [RNAcompete motif RNCMPT00416],binding signal (z-score (mean of top ten 7-mers)),[7],10.8
UUAAGUU [RNAcompete motif RNCMPT00014],binding signal (z-score (mean of top ten 7-mers)),[8],13.7
UUUUUU [RNAcompete motif RNCMPT00167],binding signal (z-score (mean of top ten 7-mers)),HNRNPCL1 (Homo sapiens),18.4
